“And” between values parts separate entries of the source, which are not always exact repeats. Equal entries are not always repeated. Where two headings read alike, the source gives them in different places.

The record followed here is patent publication US20200268901A1 (Bristol-Myers Squibb, published 2020).

The target in test [1] is T1, human CD73 on Calu6 cells (human, UniProt P21589 27-549).
T1 sequence (looked up): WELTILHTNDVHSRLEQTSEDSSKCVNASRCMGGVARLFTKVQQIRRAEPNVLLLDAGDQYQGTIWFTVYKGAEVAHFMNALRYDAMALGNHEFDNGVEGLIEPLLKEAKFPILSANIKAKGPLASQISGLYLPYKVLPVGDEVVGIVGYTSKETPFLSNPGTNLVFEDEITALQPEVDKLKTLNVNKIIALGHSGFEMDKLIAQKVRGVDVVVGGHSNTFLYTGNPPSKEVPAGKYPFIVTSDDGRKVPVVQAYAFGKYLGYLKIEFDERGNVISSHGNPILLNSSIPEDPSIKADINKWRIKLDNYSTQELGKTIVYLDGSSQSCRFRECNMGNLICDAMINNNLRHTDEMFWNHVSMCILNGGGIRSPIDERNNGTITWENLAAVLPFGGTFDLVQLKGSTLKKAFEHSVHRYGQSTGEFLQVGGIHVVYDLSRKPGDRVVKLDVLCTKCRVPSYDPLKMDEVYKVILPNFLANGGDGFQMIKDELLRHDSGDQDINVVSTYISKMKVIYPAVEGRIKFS
In words: cell-based or functional assay.

For test [2], the target named is T2, N-hCD73-his (N-terminal domain of human CD73, residues 26-336) (human, UniProt P21589 26-336).
T2 construct: not shown: his tag
T2 sequence (looked up): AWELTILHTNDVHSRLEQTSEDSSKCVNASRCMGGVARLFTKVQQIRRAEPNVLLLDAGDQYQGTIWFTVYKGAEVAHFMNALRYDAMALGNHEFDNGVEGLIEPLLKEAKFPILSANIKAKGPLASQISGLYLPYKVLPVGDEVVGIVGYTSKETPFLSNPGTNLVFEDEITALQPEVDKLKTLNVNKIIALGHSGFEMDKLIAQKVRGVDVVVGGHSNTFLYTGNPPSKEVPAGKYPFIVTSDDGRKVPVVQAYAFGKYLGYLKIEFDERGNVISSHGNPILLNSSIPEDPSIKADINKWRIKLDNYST
In words: SPR (Biacore T100), mAb captured on protein A, N-hCD73-his analyte. As for the experimental part: The affinity of the antibodies for human CD73 was measured to determine whether the change of the constant region affects them. The affinities were determined by Surface Plasmon Resonance (SPR) as follows. […] For these experiments, protein A (Pierce) was immobilized to a density of 3000-4000 RU on flow cells 1-4 of a CM5 sensor chip (GE Healthcare) using standard ethyl(dimethylaminopropyl) carbodiimide (EDC)/N-hydroxysuccinimide (NHS) chemistry, with ethanolamine blocking, in a running buffer of 0.01 M HEPES pH 7.4, 0.15 M NaCl, 3 mM EDTA, 0.005% v/v tween 20. […] The running buffer for the kinetic experiments was 10 mM sodium phosphate, 130 mM sodium chloride, 0.05% tween 20, pH 7.1. The surfaces were regenerated after each cycle using two 30 s pulses of 10 mM glycine pH 1.5 at a flow rate of 30 μl/min. Sensogram data was double-referenced and then fitted to a 1:1 Langmuir model using Biacore T100 evaluation software v2.0.4, to determine the association rate constant (ka), the dissociation rate constant (kd), and the equilibrium dissociation constant (KD).
Background: SPR reads the build-up and loss of mass on a sensor chip optically.

The target of test [3] is T1, human CD73 on Calu6 cells. In words: cell-based or functional assay. This is another data set of the same source.
Test [4] concerns the target T1, human CD73 on Calu6 cells. In words: cell-based or functional assay. The source holds these as a separate data set.
Test [5] addresses T1, human CD73 on Calu6 cells. In words: cell-based or functional assay. This is another data set of the same source.

B1: CD73.10-IgG2-C219S (antibody)
heavy: QVQLVESGGGVVQPGRSLRLSCAASGFTFSNYGMHWVRQAPGKGLEWVAVIWYDESNKYYPDSVKGRFTISRDNSKNTLYLQMNSLRAEDTAVYYCARGGSSWYPDSFDIWGQGTMVTVSSASTKGPSVFPLAPCSRSTSESTAALGCLVKDYFPEPVTVSWNSGALTSGVHTFPAVLQSSGLYSLSSVVTVPSSNFGTQTYTCNVDHKPSNTKVDKTVERKSCVECPPCPAPPVAGPSVFLFPPKPKDTLMISRTPEVTCVVVDVSHEDPEVQFNWYVDGVEVHNAKTKPREEQFNSTFRVVSVLTVVHQDWLNGKEYKCKVSNKGLPAPIEKTISKTKGQPREPQVYTLPPSREEMTKNQVSLTCLVKGFYPSDIAVEWESNGQPENNYKTTPPMLDSDGSFFLYSKLTVDKSRWQQGNVFSCSVMHEALHNHYTQKSLSLSPG
light: not shown
notes: anti-CD73; also called CD73.10-IgG2CS
Consider B1, for which, in test [1], the “% internalization, Calu6 cells” value came out at 91%; the “% internalization, H228 cells” value was 93%; the “% internalization, H2030 cells” value came out at 85%; the “% internalization, HCC15 cells” value turned out to be 91%. Moreover, in test [1], the “T1/2 min of internalization, Calu6 cells” value came out at 3 min; the “T1/2 min of internalization, H228 cells” value stood at 9.7 min; the “T1/2 min of internalization, H2030 cells” value worked out at 3.3 min; the “T1/2 min of internalization, HCC15 cells” value stood at 2.6 min. For the same molecule, in test [2], the Kd (as a rule, a measure of binding affinity in units of concentration) is 6.2 nM and 8.3 nM; the off-rate constant (koff) (commonly the first-order rate constant of dissociation) was 0.0014 s⁻¹ and 0.0018 s⁻¹; the kon (in general, the second-order rate constant of association) came out at 220000 M⁻¹ s⁻¹. For the same molecule, in test [3], the “EC50 (nM) of CD73 internalization, Calu6 cells, 2 h” value stood at 0.67 nM and the “Ymax of CD73 internalization (% of 100 nM 11F11)” value was 99%.

B2: CD73.4-IgG2.5-plusTHT (antibody)
heavy: QVQLVESGGGVVQPGRSLRLSCAASGFTFSNYGMHWVRQAPGKGLEWVAVILYDGSNKYYPDSVKGRFTISRDNSKNTLYLQMNSLRAEDTAVYYCARGGSSWYPDSFDIWGQGTMVTVSSASTKGPSVFPLAPSSRSTSESTAALGCLVKDYFPEPVTVSWNSGALTSGVHTFPAVLQSSGLYSLSSVVTVPSSNFGTQTYTCNVDHKPSNTKVDKTVERKCCVETHTCPPCPAPPVAGPSVFLFPPKPKDTLMISRTPEVTCVVVDVSHEDPEVQFNWYVDGVEVHNAKTKPREEQFNSTFRVVSVLTVVHQDWLNGKEYKCKVSNKGLPAPIEKTISKTKGQPREPQVYTLPPSREEMTKNQVSLTCLVKGFYPSDIAVEWESNGQPENNYKTTPPMLDSDGSFFLYSKLTVDKSRWQQGNVFSCSVMHEALHNHYTQKSLSLSPGK
light: not shown
B2: in test [4], the “T1/2 (hr) of CD73 internalization, Calu6 cells” value (“T1/2 (hr) … Calu6 cells” for short) stood at 0.287 h; the “T1/2 (hr) of CD73 internalization, NCI-H292 cells” value (from here on “T1/2 (hr) … NCI-H292 cells”) stood at 0.257 h; the “Ymax (%) of CD73 internalization, Calu6 cells” value (“Ymax (%) … Calu6 cells” for short) worked out at 80.2%; the “Ymax (%) of CD73 internalization, NCI-H292 cells” value (“Ymax (%) … NCI-H292 cells” for short) stood at 89.6%.

B3: CD73.4-IgG2.3G1.1f-KH (antibody)
heavy: QVQLVESGGGVVQPGRSLRLSCAASGFTFSNYGMHWVRQAPGKGLEWVAVILYDGSNKYYPDSVKGRFTISRDNSKNTLYLQMNSLRAEDTAVYYCARGGSSWYPDSFDIWGQGTMVTVSSASTKGPSVFPLAPCSRSTSESTAALGCLVKDYFPEPVTVSWNSGALTSGVHTFPAVLQSSGLYSLSSVVTVPSSNFGTQTYTCNVDHKPSNTKVDKTVERKSCVECPPCPAPPVAGPSVFLFPPKPKDTLMISRTPEVTCVVVDVSHEDPEVKFNWYVDGVEVHNAKTKPREEQYNSTYRVVSVLTVLHQDWLNGKEYKCKVSNKALPSSIEKTISKAKGQPREPQVYTLPPSREEMTKNQVSLTCLVKGFYPSDIAVEWESNGQPENNYKTTPPVLDSDGSFFLYSKLTVDKSRWQQGNVFSCSVMHEALHNHYTQKSLSLSPGK
light: not shown
notes: also called CD73.4-IgG2-C219S-IgG1.1f; CD73.4-IgG2CS-IgG1.1f
B3: in test [5], the “T1/2 (hr) … Calu6 cells” value was 0.566 h; the “T1/2 (hr) … NCI-H292 cells” value is 0.263 h; the “T1/2 (hr) of CD73 internalization, NCI-H1437 cells” value came to 0.316 h; the “T1/2 (hr) of CD73 internalization, NCI-H1437 cells (no wash)” value came out at 0.342 h. Further, in test [5], the “T1/2 (hr) of CD73 internalization, SNU-C1 cells” value was 0.495 h; the “T1/2 (hr) of CD73 internalization, SNU-C1 cells (no wash)” value worked out at 1.02 h; the “Ymax (%) … Calu6 cells” value was 76.8%; the “Ymax (%) … NCI-H292 cells” value is 77.6%. Moreover, in test [4], the “T1/2 (hr) … Calu6 cells” value is 0.351 h; the “T1/2 (hr) … NCI-H292 cells” value turned out to be 0.276 h; the “Ymax (%) … Calu6 cells” value amounted to 81%; the “Ymax (%) … NCI-H292 cells” value came to 90.3%.

B4: CD73.4-IgG2.5 (antibody)
heavy: QVQLVESGGGVVQPGRSLRLSCAASGFTFSNYGMHWVRQAPGKGLEWVAVILYDGSNKYYPDSVKGRFTISRDNSKNTLYLQMNSLRAEDTAVYYCARGGSSWYPDSFDIWGQGTMVTVSSASTKGPSVFPLAPSSRSTSESTAALGCLVKDYFPEPVTVSWNSGALTSGVHTFPAVLQSSGLYSLSSVVTVPSSNFGTQTYTCNVDHKPSNTKVDKTVERKCCVECPPCPAPPVAGPSVFLFPPKPKDTLMISRTPEVTCVVVDVSHEDPEVQFNWYVDGVEVHNAKTKPREEQFNSTFRVVSVLTVVHQDWLNGKEYKCKVSNKGLPAPIEKTISKTKGQPREPQVYTLPPSREEMTKNQVSLTCLVKGFYPSDIAVEWESNGQPENNYKTTPPMLDSDGSFFLYSKLTVDKSRWQQGNVFSCSVMHEALHNHYTQKSLSLSPGK
light: not shown
On to B4, for which, in test [4], the “T1/2 (hr) … Calu6 cells” value came to 0.348 h; the “T1/2 (hr) … NCI-H292 cells” value amounted to 0.306 h; the “Ymax (%) … Calu6 cells” value is 79%; the “Ymax (%) … NCI-H292 cells” value came to 89.6%.

B5: CD73.4-IgG2.5G1.1f-KH (antibody)
heavy: QVQLVESGGGVVQPGRSLRLSCAASGFTFSNYGMHWVRQAPGKGLEWVAVILYDGSNKYYPDSVKGRFTISRDNSKNTLYLQMNSLRAEDTAVYYCARGGSSWYPDSFDIWGQGTMVTVSSASTKGPSVFPLAPSSRSTSESTAALGCLVKDYFPEPVTVSWNSGALTSGVHTFPAVLQSSGLYSLSSVVTVPSSNFGTQTYTCNVDHKPSNTKVDKTVERKCCVECPPCPAPPVAGPSVFLFPPKPKDTLMISRTPEVTCVVVDVSHEDPEVKFNWYVDGVEVHNAKTKPREEQYNSTYRVVSVLTVLHQDWLNGKEYKCKVSNKALPSSIEKTISKAKGQPREPQVYTLPPSREEMTKNQVSLTCLVKGFYPSDIAVEWESNGQPENNYKTTPPVLDSDGSFFLYSKLTVDKSRWQQGNVFSCSVMHEALHNHYTQKSLSLSPGK
light: not shown
Turning to B5, in test [4], the “T1/2 (hr) … Calu6 cells” value is 0.353 h; the “T1/2 (hr) … NCI-H292 cells” value amounted to 0.299 h; the “Ymax (%) … Calu6 cells” value came to 79.6%; the “Ymax (%) … NCI-H292 cells” value came to 90.9%.

B6: 11F11 (antibody, human IgG2, kappa, V domains shown)
VH: QVQLVESGGGVVQPGRSLRLSCATSGFTFSNYGMHWVRQAPGKGLEWVAVILYDGSNKYYPDSVKGRFTISRDNSKNTLYLQMNSLRAEDTAVYYCARGGSSWYPDSFDIWGQGTMVTVSS
VL: DIQMTQSPSSLSASVGDRVTITCRASQGISSWLAWYQQKPEKAPKSLIYAASSLQSGVPSRFSGSGSGTDFTLTISSLQPEDFATYYCQQYNSYPLTFGGGTKVEIKR
notes: anti-CD73, IgG2; also called 11F11(IgG2)
With B6, in test [2], the Kd is 1.6 nM and 0.56 nM; the koff was 0.00042 s⁻¹ and 0.00016 s⁻¹; the kon is 260000 M⁻¹ s⁻¹ and 290000 M⁻¹ s⁻¹. In test [3], the “EC50 (nM) of CD73 internalization, Calu6 cells, 2 h” value stood at 0.58 nM and the “Ymax of CD73 internalization (% of 100 nM 11F11)” value is 98%.
